According to US20200240995A1, “KDAC VARIANTS AND USES THEREOF” (Max-Planck-Gesellschaft Zur Forderung Der Wissenschaften …, priority 2017, published 2020):

Test system: Firefly luciferase modified at K529
Experiment: Dual luciferase reporter (DLR) assay in E. coli whole cell lysates
Assay type: cell-based
Conditions: normalized to Renilla luciferase, relative to wild-type CobB; for DLR activity [rel. to wild-type], AcK: AcK at K529; for DLR activity [rel. to wild-type], AlocK: AlocK at K529; for DLR activity [rel. to wild-type], BocK: BocK at K529; for DLR activity [rel. to wild-type], CrK: CrK at K529
Procedure: FIG. 3: Evolved CobB variants can activate Firefly luciferase modified at K529. Dual luciferase reporter (DLR) assays were performed with E. coli producing DLR with the indicated modification of K529 in the Firefly enzyme. Activities were normalized to genetically fused Renilla luciferase and plotted relative to the activity observed for wild-type CobB on the same substrate. A) CobB mutant able to discriminate crotonyl-over acetyl-lysine. B) CobB mutants active against protected forms of lysine.
The mutants isolated in the selections were tested using Firefly dual luciferase assays. E. coli DH10B ΔpyrF ΔcobB were transformed with plasmids expressing Firefly luciferase with the relevant modification on lysine-529 and the cobB mutants. Luciferase activity was tested directly in whole cell lysates and compared to the activity of wild-type cobB towards the modifications. The activities observed for the evolved KDAC variants correlated well with the activities observed in the uracil selections (FIG. 3).

Molecule	DLR activity [rel. to wild-type], AcK	DLR activity [rel. to wild-type], AlocK	DLR activity [rel. to wild-type], BocK	DLR activity [rel. to wild-type], CrK
Debocylase-1: E. coli CobB mutant I131V V148L (protein, Debocylase-1, E. coli CobB mutant I131V V148L) KPRVLVLTGAGISAESGIRTFRAADGLWEEHRVEDVATPEGFDRDPELVQAFYNARRRQLQQPEIQPNAAHLALAKLQDALGDRFLLVTQNVDNLHERAGNTNVIHMHGELLKVRCSQSGQVLDWTGDVTPEDKCHCCQFPAPLRPHLVWFGEMPLGMDEIYMALSMADIFIAIGTSGHVYPAAGFVHEAKLHGAHTVELNLEPSQVGNEFAEKYYGPASQVVPEFVEKLLKGLKAGSIA	1.25 rel. to wild-type	8.35 rel. to wild-type	8.65 rel. to wild-type	2.90 rel. to wild-type
Dealocase-2: E. coli CobB mutant A37G R56G I92V (protein, Dealocase-2, E. coli CobB mutant A37G R56G I92V) KPRVLVLTGAGISAESGIRTFRAADGLWEEHRVEDVGTPEGFDRDPELVQAFYNAGRRQLQQPEIQPNAAHLALAKLQDALGDRFLLVTQNVDNLHERAGNTNVIHMHGELLKVRCSQSGQVLDWTGDVTPEDKCHCCQFPAPLRPHVVWFGEMPLGMDEIYMALSMADIFIAIGTSGHVYPAAGFVHEAKLHGAHTVELNLEPSQVGNEFAEKYYGPASQVVPEFVEKLLKGLKAGSIA	1.19 rel. to wild-type	10.23 rel. to wild-type	0.77 rel. to wild-type	2.11 rel. to wild-type
Dealocase-3: E. coli CobB mutant I131S V148L (protein, Dealocase-3, E. coli CobB mutant I131S V148L) KPRVLVLTGAGISAESGIRTFRAADGLWEEHRVEDVATPEGFDRDPELVQAFYNARRRQLQQPEIQPNAAHLALAKLQDALGDRFLLVTQNSDNLHERAGNTNVIHMHGELLKVRCSQSGQVLDWTGDVTPEDKCHCCQFPAPLRPHLVWFGEMPLGMDEIYMALSMADIFIAIGTSGHVYPAAGFVHEAKLHGAHTVELNLEPSQVGNEFAEKYYGPASQVVPEFVEKLLKGLKAGSIA	0.35 rel. to wild-type	6.00 rel. to wild-type	0.65 rel. to wild-type	1.00 rel. to wild-type
Dealocase-1: E. coli CobB mutant A37S Y53W R56W I92V (protein, Dealocase-1, E. coli CobB mutant A37S Y53W R56W I92V) KPRVLVLTGAGISAESGIRTFRAADGLWEEHRVEDVSTPEGFDRDPELVQAFWNAWRRQLQQPEIQPNAAHLALAKLQDALGDRFLLVTQNVDNLHERAGNTNVIHMHGELLKVRCSQSGQVLDWTGDVTPEDKCHCCQFPAPLRPHVVWFGEMPLGMDEIYMALSMADIFIAIGTSGHVYPAAGFVHEAKLHGAHTVELNLEPSQVGNEFAEKYYGPASQVVPEFVEKLLKGLKAGSIA	0.49 rel. to wild-type	10.83 rel. to wild-type	2.88 rel. to wild-type	5.73 rel. to wild-type
Decrotonylase-1: E. coli CobB mutant A37R Y53G R56T I92R V148L (protein, Decrotonylase-1, E. coli CobB mutant A37R Y53G R56T I92R V148L) KPRVLVLTGAGISAESGIRTFRAADGLWEEHRVEDVRTPEGFDRDPELVQAFGNATRRQLQQPEIQPNAAHLALAKLQDALGDRFLLVTQNRDNLHERAGNTNVIHMHGELLKVRCSQSGQVLDWTGDVTPEDKCHCCQFPAPLRPHLVWFGEMPLGMDEIYMALSMADIFIAIGTSGHVYPAAGFVHEAKLHGAHTVELNLEPSQVGNEFAEKYYGPASQVVPEFVEKLLKGLKAGSIA	0.00 rel. to wild-type	0.02 rel. to wild-type	0.04 rel. to wild-type	0.10 rel. to wild-type
